Among the data in patent publication US20020082235A1 are osteopontin promoter activity (OPN-266 luciferase reporter, C3H10T1/2 cells) values, retold here.

For the assay, the target named is Hoxc-8 (in the transfected C3H10T1/2 and 2T3 cells). The assay can be described thus: cell-based or functional assay.
Take “Smad1-L (aa 145-276) fused with a nuclear localization signal”: the osteopontin promoter activity (OPN-266 luciferase reporter, C3H10T1/2 cells) lay in the range of 3 to 5 fold.

The substance “Smad1-NL (amino acids 3-276) fused with a nuclear localization signal” displayed an osteopontin promoter activity (OPN-266 luciferase reporter, C3H10T1/2 cells) of 3 to 5 fold.

“Smad1-M (101-191) fused with a nuclear localization signal” had an osteopontin promoter activity (OPN-266 luciferase reporter, C3H10T1/2 cells) of 3 to 5 fold.
